For this experiment, the target named is Mycobacterium tuberculosis RsdA^1-94 (Mycobacterium tuberculosis, UniProt P9WJ71 1-94). As to the kind of experiment: SPR.
Sequence of Mycobacterium tuberculosis RsdA^1-94 (P9WJ71 1-94): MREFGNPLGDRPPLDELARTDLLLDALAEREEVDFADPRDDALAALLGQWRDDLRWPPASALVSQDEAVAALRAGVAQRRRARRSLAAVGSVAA

B1: -35 promoter binding domain of Mycobacterium tuberculosis σ^D (σ^D4), residues 141-212 (domain or fragment)
chain: MAIEADSVTRMNELLEILPAKQREILILRVVVGLSAEETAAAVGSTTGAVRVAQHRALQRLKDEIVAAGDYA
By Kd is commonly meant the equilibrium constant for the complex coming apart. The low end stands for higher affinity, the high end for lower affinity. For the molecule B1, the equilibrium dissociation constant (Kd) was determined as 10.3 ± 3.5 µM.
